Reference: paper PMC9646764 (2022)

B1: mTFPI-Fc (Fc-tagged mouse TFPI) (Fc fusion)
chain: LSEEADDTDSELGSMKPLHTFCAMKADDGPCKAMIRSYFFNMYTHQCEEFIYGGCEGNENRFDTLEECKKTCIPGYEKTAVKAASGAERPDFCFLEEDPGLCRGYMKRYLYNNQTKQCERFVYGGCLGNRNNFETLDECKKICENPVHSPSPVNEVQMSDYVTDGNTVTDRSTVNNIVVPQSPKVPRRR
B2: TcdB4.2_(1286-1805) (domain or fragment)
chain: TNIRISLDSNTRSFIVPVITTEYIREKLSYSFYGSGGTYALSLSQYNMNINIELNENDTWVIDVDNVVRDVTIESDKIKKGDLIENILSKLSIEDNKIILDNHEINFSGTLNGGNGFVSLTFSILEGINAVIEVDLLSKSYKVLISGELKTLMANSNSVQQKIDYIGLNSELQKNIPYSFMDDEGKENGFINCFTKEGLFVSELSDVVLIIKVYMDNSKPPFGYYSNDLKDVKVITKDDVIIITGYYLKDDIKISLSFTIQDKNTIKLNGVYLDENGVAEILKFMNKKGSTNTSDSLMSFLESMNIKSIFIKSLKSNAKLILDTNFIISGTTFIGQFEFICDKDNNIQPYFIKFNTLETKYTLYVGNRQNMIVEPNYNLDDSGDISSTVINFSQKYLYGIDSCVNKVVISPGIYTDEINITPVHEANNTYPEVIVLDTNYISEKINININDLSIRYVWSNDGSDFILMSTDEENKVSQVKIRFTNVFKGNTISDKISFNFSDKQDISINKIISTFTPSYY
B3: Chicken TFPI-Fc (Fc fusion)
chain: TDDSDGEEEDVLGVPLPPLKLGHSDCALKADEGPCKAIHVRFYFNIQSRECEIFEYGGCHGNANNFLTLEECQNKCVVTELPLEVMLAKNEREKPNFCYQEKDPGICRGFFSRYFYNKETKICEIFKYGGCLGNQNNFKSLEECQTTCQGNPNLLSVAPDEEHPNHMNSSSPEEERNQFPGIVE

Columns and labels:
Assay in all cases: BLI
TcdB10.1_(1285-1804) = TcdB10.1_(1285-1804) ( | Clostridioides difficile)
Chicken TFPI-Fc [1] = target: B3
[2] = target: TFPI-Fc (human IgG-Fc-tagged TFPI without the GPI anchor) (human, UniProt P10646 29-209)
[3] = target: B1
Chicken TFPI-Fc [4] = target: B3

Chain of TFPI-Fc (human IgG-Fc-tagged TFPI without the GPI anchor) (P10646 29-209): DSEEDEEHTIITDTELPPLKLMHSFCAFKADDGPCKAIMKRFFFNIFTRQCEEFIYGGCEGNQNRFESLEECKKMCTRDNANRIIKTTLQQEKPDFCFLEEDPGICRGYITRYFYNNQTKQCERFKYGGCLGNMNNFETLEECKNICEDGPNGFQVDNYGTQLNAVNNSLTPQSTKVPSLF

Binder | Kd (TcdB10.1_(1285-1804)) | koff (TcdB10.1_(1285-1804)) | koff (Chicken TFPI-Fc [1]) | koff [2] | koff [3] | Kd (Chicken TFPI-Fc [4])
B1 | 465 nM | 0.00637 s⁻¹ |  |  |  | 
B2 |  |  | 0.00885 s⁻¹ | 0.00708 s⁻¹ | 0.00344 s⁻¹ | 336 nM
B3 | 70.5 nM | 0.006 s⁻¹ |  |  |  | 
